The target in test [1] is C-terminal SH2 domain of PI3K regulatory subunit 1 (UniProt P27986 614-724). Kind of test: FP.
For test [2], the target named is N-terminal SH2 domain of PI3K regulatory subunit 1 (UniProt P27986 321-433). Kind of test: FP.

Square brackets hold non-standard residues; d marks the D form. Ends that are not written are not given here. pY = N[C@@H](Cc1ccc(OP(=O)(O)O)cc1)C(=O)O

C-terminal SH2 domain of PI3K regulatory subunit 1, sequence (P27986 614-724): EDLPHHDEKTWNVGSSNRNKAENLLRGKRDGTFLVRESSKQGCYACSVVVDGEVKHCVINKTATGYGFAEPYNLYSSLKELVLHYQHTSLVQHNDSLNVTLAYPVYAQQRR
N-terminal SH2 domain of PI3K regulatory subunit 1, sequence (P27986 321-433): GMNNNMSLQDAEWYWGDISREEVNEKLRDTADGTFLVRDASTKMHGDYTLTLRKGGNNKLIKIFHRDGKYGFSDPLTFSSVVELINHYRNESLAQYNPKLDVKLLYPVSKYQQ

The term Kd denotes the concentration at which binding is half-saturated. On to GRKGSGD[pY]MPMSPKV-NH2 [phospho-para-Tyr IRS-1 peptide GRKGSGD(pY)MPMSPKV], for which the dissociation constant (Kd) in test [1] worked out at 2.1 nM; in test [2] it was 137 nM.

B1: fluorescently labelled phospho-para-tyrosine IRS-1 peptide GRKGSGD(pY)MPMSPKS(K-FITC) (peptide)
peptide: GRKGSGDYMPMSPKSK
modifications: not fully specified; phosphotyrosine at position 8 of the peptide (tyrosine residue 632 of human IRS1); lys-carboxyfluorescein (K-FITC) at the C-terminal end
For the molecule B1, the equilibrium dissociation constant (Kd) amounted to 18.6 nM in test [1] and 408 nM in test [2].

These data come from PMC9138545 (2022).
